Measurements published in IntAct's records for PubMed 22158122.

B1: TGF-beta-activated kinase 1 and MAP3K7-binding protein 3 (Homo sapiens), Q8N5C8-1 (parent)
chain: MAQSSPQLDIQVLHDLRQRFPEIPEGVVSQCMLQNNNNLEACCRALSQESSKYLYMEYHSPDDNRMNRNRLLHINLGIHSPSSYHPGDGAQLNGGRTLVHSSSDGHIDPQHAAGKQLICLVQEPHSAPAVVAATPNYNPFFMNEQNRSAATPPSQPPQQPSSMQTGMNPSAMQGPSPPPPPPSYMHIPRYSTNPITVTVSQNLPSGQTVPRALQILPQIPSNLYGSPGSIYIRQTSQSSSGRQTPQSTPWQSSPQGPVPHYSQRPLPVYPHQQNYQPSQYSPKQQQIPQSAYHSPPPSQCPSPFSSPQHQVQPSQLGHIFMPPSPSTTPPHPYQQGPPSYQKQGSHSVAYLPYTASSLSKGSMKKIEITVEPSQRPGTAINRSPSPISNQPSPRNQHSLYTATTPPSSSPSRGISSQPKPPFSVNPVYITYTQPTGPSCTPSPSPRVIPNPTTVFKITVGRATTENLLNLVDQEERSAAPEPIQPISVIPGSGGEKGSHKYQRSSSSGSDDYAYTQALLLHQRARMERLAKQLKLEKEELERLKSEVNGMEHDLMQRRLRRVSCTTAIPTPEEMTRLRSMNRQLQINVDCTLKEVDLLQSRGNFDPKAMNNFYDNIEPGPVVPPKPSKKDSSDPCTIERKARRISVTSKVQADIHDTQAAAADEHRTGSTQSPRTQPRDEDYEGAPWNCDSCTFLNHPALNRCEQCEMPRYT
partner: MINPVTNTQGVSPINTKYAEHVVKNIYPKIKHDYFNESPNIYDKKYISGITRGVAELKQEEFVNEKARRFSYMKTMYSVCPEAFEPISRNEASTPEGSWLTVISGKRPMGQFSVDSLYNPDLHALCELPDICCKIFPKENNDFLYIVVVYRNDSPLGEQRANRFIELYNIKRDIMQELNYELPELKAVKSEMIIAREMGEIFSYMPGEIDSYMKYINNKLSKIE
B2: TGF-beta-activated kinase 1 and MAP3K7-binding protein 2 (Homo sapiens), Q9NYJ8 (parent)
chain: MAQGSHQIDFQVLHDLRQKFPEVPEVVVSRCMLQNNNNLDACCAVLSQESTRYLYGEGDLNFSDDSGISGLRNHMTSLNLDLQSQNIYHHGREGSRMNGSRTLTHSISDGQLQGGQSNSELFQQEPQTAPAQVPQGFNVFGMSSSSGASNSAPHLGFHLGSKGTSSLSQQTPRFNPIMVTLAPNIQTGRNTPTSLHIHGVPPPVLNSPQGNSIYIRPYITTPGGTTRQTQQHSGWVSQFNPMNPQQVYQPSQPGPWTTCPASNPLSHTSSQQPNQQGHQTSHVYMPISSPTTSQPPTIHSSGSSQSSAHSQYNIQNISTGPRKNQIEIKLEPPQRNNSSKLRSSGPRTSSTSSSVNSQTLNRNQPTVYIAASPPNTDELMSRSQPKVYISANAATGDEQVMRNQPTLFISTNSGASAASRNMSGQVSMGPAFIHHHPPKSRAIGNNSATSPRVVVTQPNTKYTFKITVSPNKPPAVSPGVVSPTFELTNLLNHPDHYVETENIQHLTDPTLAHVDRISETRKLSMGSDDAAYTQALLVHQKARMERLQRELEIQKKKLDKLKSEVNEMENNLTRRRLKRSNSISQIPSLEEMQQLRSCNRQLQIDIDCLTKEIDLFQARGPHFNPSAIHNFYDNIGFVGPVPPKPKDQRSIIKTPKTQDTEDDEGAQWNCTACTFLNHPALIRCEQCEMPRHF
partner: B1 partner

Variants of: B1
Conditions: with nlee_eco27 nleE

Variant | effect of a mutation on the interaction
C689S | disrupting interaction
C706S | disrupting interaction
C703S | disrupting interaction

Variants of: B2
Conditions: with nlee_eco27 nleE

Variant | effect of a mutation on the interaction
C684S | disrupting interaction
C670S | disrupting interaction
C687S | disrupting interaction
